Laboratory results: publication PMC3788124, “Crystal Structure of the Human Short Coiled Coil Protein and Insights into SCOC-FEZ1 Complex Formation” (PLoS ONE, 2013)

B1: Strep-tagged SCOC(78-159) N125L/N132V (domain or fragment)
chain: not shown
notes: human SCOC, SwissProt entry Q9UIL1 isoform 1, residues 78-159, with N125L and N132V; linker between SCOC and the Strep-tag, as in the wild-type construct; Tetramer by SEC-MALLS and native MS; also called tetrameric core mutant; double core mutant N125L/N132V; source: E. coli BL21 (DE3), purified (StrepTrap, Superdex 75); also co-expressed with FEZ1(227-290) in E. coli
B2: Strep-tagged SCOC(78-159) R117E (domain or fragment)
chain: not shown
notes: human SCOC, SwissProt entry Q9UIL1 isoform 1, residues 78-159, with R117E; linker between SCOC and the Strep-tag, as in the wild-type construct; also called R117E surface mutant; source: E. coli BL21 (DE3), purified (StrepTrap, Superdex 75); also co-expressed with FEZ1(227-290) in E. coli
B3: Strep-tagged SCOC(78-159) E93V/K97L (domain or fragment, human)
chain: MAMMNADMDAVDAENQVVLEELTRLINQVLELQHTLEDLSARVDAVKEENLKLKSENQVLGQYIENLMSASSVFQTTDTKSKRKLVPRGS
notes: human SCOC, SwissProt entry Q9UIL1 isoform 1, residues 78-159, with E93V and K97L; linker between SCOC and the Strep-tag, as in the wild-type construct; Trimer by SEC-MALLS and native MS; also called trimeric SCOC mutant; double core mutant E93V/K97L; source: E. coli BL21 (DE3), purified (StrepTrap, Superdex 75); also co-expressed with FEZ1(227-290) in E. coli
B4: C-terminal Strep-tagged SCOC(78-159), wild type (domain or fragment)
chain: not shown
notes: human short coiled coil protein (SCOC), SwissProt entry Q9UIL1 isoform 1, residues 78-159; underlined stretch of the printed construct; linker between SCOC and the Strep-tag in the printed construct; Dimer by SEC-MALLS and native MS; also called short coiled coil protein; Strep-SCOC(78-159); source: E. coli BL21 (DE3), purified (StrepTrap, Superdex 75); also co-expressed with FEZ1(227-290) in E. …
B5: Strep-tagged SCOC(78-159) R99E (domain or fragment)
chain: not shown
notes: human SCOC, SwissProt entry Q9UIL1 isoform 1, residues 78-159, with R99E; linker between SCOC and the Strep-tag, as in the wild-type construct; also called R99E surface mutant; source: E. coli BL21 (DE3), purified (StrepTrap, Superdex 75); also co-expressed with FEZ1(227-290) in E. coli
B6: Selenomethionine-labelled Strep-tagged L105M SCOC(78-159) (domain or fragment)
chain: not shown
modifications: selenomethionine-labelled
notes: human SCOC, SwissProt entry Q9UIL1 isoform 1, residues 78-159, with L105M; linker between SCOC and the Strep-tag, as in the wild-type construct; Crystallised by in situ proteolysis with subtilisin (1:2000 w/w), so the chain in the crystal may be shorter; the final model comprises residues 86-147 and the Strep-tag is not visible in the electron density; also called L105M SCOC mutant; SCOC_(78-159) …

Legend:
[1] = target: the molecule itself; experiment: SEC-MALLS; SCOC constructs alone; 500 µL of 1.5 mg/ml on Superdex 200 10/300 GL; three measurements for each protein
[2] = target: the molecule itself; experiment: crystal structure; selenomethionine-labelled L105M SCOC(78-159), 3 mg/ml, with subtilisin 1:2000 (w/w) for in situ proteolysis; hanging drops, 20 °C, 100 mM sodium acetate pH 4.6, 0.7 M 1,6-hexanediol, 10 mM CoCl2

| Protein | stoichiometry N [1] | binding result [2] |
| --- | --- | --- |
| B1 | 4 |  |
| B2 | 2 |  |
| B3 | 3 |  |
| B4 | 2 |  |
| B5 | 2 |  |
| B6 |  | binds |
